Target: T1, Fc-tagged extracellular section of EGFR (rEGFR) (human, UniProt P00533 25-645)
T1 construct: EGFR, extracellular section, human-derived; Bought protein; also called rEGFR (extracellular part); recombinant extracellular domain of EGFR; source: bought: Sino Biological
Test: pull-down; 200 ng/mL rSPINK4-His and 1000 ng/mL Fc-tagged extracellular EGFR in 1 mL PBS with protease inhibitors, 4 °C overnight; anti-His or anti-EGFR magnetic beads, IgG control; Western blot
Details: both partners purified

binding result: binds
B1: human-derived recombinant SPINK4 protein, His-tagged (rSPINK4-His) (natural protein, UniProt O60575 27-86, looked up)
chain: GKLPFSRMPICEHMVESPTCSQMSNLVCGTDGLTYTNECQLCLARIKTKQDIQIMKDGKC
notes: Bought recombinant protein
